Experimental data taken from patent US20150140013A1 (GENERAL HOSPITAL, published 2015).

Biological target: T1, RAPTOR (UniProt Q8N122 1-1335)
T1 construct: Endogenous protein in lysates of human cancer cell lines
Assay: co-immunoprecipitation with anti-FAK from whole-cell lysates of HCT116 and MCF7 cells in mitosis, immunoblot with anti-RAPTOR
Protocol: The immunoprecipitates were washed and resolved by SDS-PAGE. For western blots: primary antibody: RICTOR, mTOR (Cell Signaling), Raptor, FAK, β1-integrin, TTC3 (AbCam).
Standard protocols were used for SDS-PAGE electrophoresis and the following primary antibodies: α-RICTOR, α-mTOR, Phospho-AKT-Ser473 (D9E; Cell Signaling Technology) and α-RAPTOR, α-FAK, α-β1-integrin, α-TTC3, Pan-AKT, and GAPDH (Abcam). For immunoprecipitation studies, cells were synchronized with 200 ng/mL of nocodazole for 12 hours and then released for 2 hours. Cells were rinsed with PBS, fixed with 0.37% formalde-hyde, and quenched with 0.25 mol/L glycine. Cell lysates were prepared in lysis buffer [1% Triton X-100, 150 mmol/L NaCl, 3 mmol/L MgCl, 40 mmol/L HEPES (pH 7.5), 50 mmol/L NaF, EDTA-free protease inhibitor and phosphatase inhibitor (Roche)] and centrifuged at 14,000×g for 10 minutes. Supernatant (250 μg) was incubated with the indicated antibodies [α-FAK (AbCam), α-RICTOR (Santa Cruz Biotechnology)], for 4 hours at 4° C. with rotation and then with 50 μL of a 50% slurry of protein G-sepharose (Roche) for 1 hour Immunoprecipitates were washed and resolved by SDS-PAGE electrophoresis.
To identify an upstream regulator that might activate mTORC2 signaling during asymmetric division, an immunoprecipitation approach was used to identify proteins that physically interact with the mTORC2 complex during mitosis. […]

T1 sequence (Q8N122 whole entry): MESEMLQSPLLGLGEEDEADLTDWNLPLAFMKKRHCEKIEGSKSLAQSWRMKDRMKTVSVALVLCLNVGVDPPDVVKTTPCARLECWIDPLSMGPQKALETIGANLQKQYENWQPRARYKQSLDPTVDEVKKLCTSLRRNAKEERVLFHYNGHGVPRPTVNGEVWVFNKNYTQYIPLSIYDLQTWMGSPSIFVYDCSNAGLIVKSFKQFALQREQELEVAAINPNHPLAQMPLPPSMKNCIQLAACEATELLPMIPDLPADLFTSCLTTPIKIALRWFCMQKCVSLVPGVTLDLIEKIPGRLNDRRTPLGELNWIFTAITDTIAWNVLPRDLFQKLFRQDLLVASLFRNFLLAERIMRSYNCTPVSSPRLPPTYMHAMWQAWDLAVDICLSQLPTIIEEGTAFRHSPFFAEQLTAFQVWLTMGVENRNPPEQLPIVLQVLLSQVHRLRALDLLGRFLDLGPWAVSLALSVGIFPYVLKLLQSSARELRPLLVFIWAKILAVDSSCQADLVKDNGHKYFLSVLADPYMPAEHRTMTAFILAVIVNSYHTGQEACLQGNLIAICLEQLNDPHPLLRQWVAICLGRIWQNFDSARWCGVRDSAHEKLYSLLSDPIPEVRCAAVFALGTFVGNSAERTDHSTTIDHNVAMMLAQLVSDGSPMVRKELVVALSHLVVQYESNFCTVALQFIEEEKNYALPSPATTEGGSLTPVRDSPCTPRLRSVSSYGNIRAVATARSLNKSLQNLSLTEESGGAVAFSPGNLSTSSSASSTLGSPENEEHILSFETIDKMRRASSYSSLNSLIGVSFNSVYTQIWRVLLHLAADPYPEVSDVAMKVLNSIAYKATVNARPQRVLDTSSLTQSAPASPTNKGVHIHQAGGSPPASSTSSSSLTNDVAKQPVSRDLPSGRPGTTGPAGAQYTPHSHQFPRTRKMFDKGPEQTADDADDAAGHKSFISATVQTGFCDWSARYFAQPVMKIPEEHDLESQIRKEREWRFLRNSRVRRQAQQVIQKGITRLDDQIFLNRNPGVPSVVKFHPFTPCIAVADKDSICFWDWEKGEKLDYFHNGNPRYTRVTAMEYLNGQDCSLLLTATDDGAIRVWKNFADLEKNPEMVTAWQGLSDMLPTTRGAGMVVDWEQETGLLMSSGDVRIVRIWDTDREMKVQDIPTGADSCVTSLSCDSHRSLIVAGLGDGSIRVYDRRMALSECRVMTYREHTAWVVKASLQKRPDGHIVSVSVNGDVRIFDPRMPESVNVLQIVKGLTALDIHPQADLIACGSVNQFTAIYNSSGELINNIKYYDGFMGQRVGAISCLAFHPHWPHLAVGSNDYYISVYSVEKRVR

binding result: no binding
B1: focal adhesion kinase (FAK) (enzyme, human, UniProt Q05397 2-1052, looked up)
chain: AAAYLDPNLNHTPNSSTKTHLGTGMERSPGAMERVLKVFHYFESNSEPTTWASIIRHGDATDVRGIIQKIVDSHKVKHVACYGFRLSHLRSEEVHWLHVDMGVSSVREKYELAHPPEEWKYELRIRYLPKGFLNQFTEDKPTLNFFYQQVKSDYMLEIADQVDQEIALKLGCLEIRRSYWEMRGNALEKKSNYEVLEKDVGLKRFFPKSLLDSVKAKTLRKLIQQTFRQFANLNREESILKFFEILSPVYRFDKECFKCALGSSWIISVELAIGPEEGISYLTDKGCNPTHLADFTQVQTIQYSNSEDKDRKGMLQLKIAGAPEPLTVTAPSLTIAENMADLIDGYCRLVNGTSQSFIIRPQKEGERALPSIPKLANSEKQGMRTHAVSVSETDDYAEIIDEEDTYTMPSTRDYEIQRERIELGRCIGEGQFGDVHQGIYMSPENPALAVAIKTCKNCTSDSVREKFLQEALTMRQFDHPHIVKLIGVITENPVWIIMELCTLGELRSFLQVRKYSLDLASLILYAYQLSTALAYLESKRFVHRDIAARNVLVSSNDCVKLGDFGLSRYMEDSTYYKASKGKLPIKWMAPESINFRRFTSASDVWMFGVCMWEILMHGVKPFQGVKNNDVIGRIENGERLPMPPNCPPTLYSLMTKCWAYDPSRRPRFTELKAQLSTILEEEKAQQEERMRMESRRQATVSWDSGGSDEAPPKPSRPGYPSPRSSEGFYPSPQHMVQTNHYQVSGYPGSHGITAMAGSIYPGQASLLDQTDSWNHRPQEIAMWQPNVEDSTVLDLRGIGQVLPTHLMEERLIRQQQEMEEDQRWLEKEERFLKPDVRLSRGSIDREDGSLQGPIGNQHIYQPVGKPDPAAPPKKPPRPGAPGHLGSLASLSSPADSYNEGVKLQPQEISPPPTANLDRSNDKVYENVTGLVKAVIEMSSKIQPAPPEEYVPMVKEVGLALRTLLATVDETIPLLPASTHREIEMAQKLLNSDLGELINKMKLAQQYVMTSLQQEYKKQMLTAAHALAVDAKNLLDVIDQARLKMLGQTRPH
notes: Endogenous protein of the human cancer cell lines HCT116 and MCF7; lysates of formaldehyde-fixed cells were used for immunoprecipitation; also called PTK2
